Measurements: publication PMC13000311 (Nature Communications, 2026)

B1: human flotillin-1 with a C-terminal 3× FLAG tag (natural protein, UniProt O75955 1-427, looked up)
chain: MFFTCGPNEAMVVSGFCRSPPVMVAGGRVFVLPCIQQIQRISLNTLTLNVKSEKVYTRHGVPISVTGIAQVKIQGQNKEMLAAACQMFLGKTEAEIAHIALETLEGHQRAIMAHMTVEEIYKDRQKFSEQVFKVASSDLVNMGISVVSYTLKDIHDDQDYLHSLGKARTAQVQKDARIGEAEAKRDAGIREAKAKQEKVSAQYLSEIEMAKAQRDYELKKAAYDIEVNTRRAQADLAYQLQVAKTKQQIEEQRVQVQVVERAQQVAVQEQEIARREKELEARVRKPAEAERYKLERLAEAEKSQLIMQAEAEAASVRMRGEAEAFAIGARARAEAEQMAKKAEAFQLYQEAAQLDMLLEKLPQVAEEISGPLTSANKITLVSSGSGTMGAAKVTGEVLDILTRLPESVERLTGVSISQVNHKPLRTA

Tests used:
[1] = target: B1; experiment: cryo-EM structure
cryo-EM structure = target: the molecule itself; experiment: cryo-EM structure

| stoichiometry N [1] | Binder | binding result (cryo-EM structure) |
| --- | --- | --- |
| 44 protomers (22 flotillin-1 and 22 flotillin-2) | human flotillin-2 (as in the purified complex used for cryo-EM) (natural protein, UniProt Q14254 1-428, looked up) MGNCHTVGPNEALVVSGGCCGSDYKQYVFGGWAWAWWCISDTQRISLEIMTLQPRCEDVETAEGVALTVTGVAQVKIMTEKELLAVACEQFLGKNVQDIKNVVLQTLEGHLRSILGTLTVEQIYQDRDQFAKLVREVAAPDVGRMGIEILSFTIKDVYDKVDYLSSLGKTQTAVVQRDADIGVAEAERDAGIREAECKKEMLDVKFMADTKIADSKRAFELQKSAFSEEVNIKTAEAQLAYELQGAREQQKIRQEEIEIEVVQRKKQIAVEAQEILRTDKELIATVRRPAEAEAHRIQQIAEGEKVKQVLLAQAEAEKIRKIGEAEAAVIEAMGKAEAERMKLKAEAYQKYGDAAKMALVLEALPQIAAKIAAPLTKVDEIVVLSGDNSKVTSEVNRLLAELPASVHALTGVDLSKIPLIKKATGVQV |  |
|  | B1 | binds |
